T1: N-terminally truncated 20 mer without proline-612 (613-622) (Homo sapiens)
T1 construct: source: synthetic peptide, immobilised on a cellulose membrane (PepSpots, JPT Peptide Technologies)
T1 chain: IWKFPDEEGA

T2: peptide 1 of the overlapping 15mer peptides covering the p95HER2 extracellular domain (Homo sapiens, UniProt P04626)
T2 construct: first 15mer of the p95HER2 extracellular domain, containing MPIW; source: synthetic peptide, immobilised on a cellulose membrane (PepSpots, JPT Peptide Technologies)
T2 chain: MPIWKFPDEEGACQP

T3: N-terminally truncated 20 mer without isoleucine-613 (614-622) (Homo sapiens)
T3 construct: source: synthetic peptide, immobilised on a cellulose membrane (PepSpots, JPT Peptide Technologies)
T3 chain: WKFPDEEGA

T4: N-terminally truncated 20 mer without methionine-611 (612-622) (Homo sapiens)
T4 construct: source: synthetic peptide, immobilised on a cellulose membrane (PepSpots, JPT Peptide Technologies)
T4 chain: PIWKFPDEEGA

T5: 20 mer epitope peptide GVKPDLSYMPIWKFPDEEGA (region 603-622 in HER2) (Homo sapiens)
T5 construct: region 603-622 in HER2, spanning the N terminus of the p95HER2 extracellular domain; source: synthetic peptide, immobilised on a cellulose membrane (PepSpots, JPT Peptide Technologies)
T5 chain: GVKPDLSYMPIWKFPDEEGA


Key:
[1] = target: T6, extracellular domain of p95HER2 peptide with a poly-histidine-tag in the C-terminus (Homo sapiens); experiment: SPR; Oslo-2 mAb (5 μg/mL) covalently immobilised by amine coupling on a CM5 chip, anti-HER2 (cytopla-HER2) mAb on the reference flow cell; p95HER2 ECD peptide as analyte, 0.6 to 2500 nM; HBS-EP+ buffer; 25 °C; Biacore T200; global fit to the 1:1 bimolecular interaction model; settings: both partners purified
T6 construct: printed with HHHHHH at the C-terminus; also called p95HER2 ECD peptide; source: synthetic peptide (GenScript); not shown: His6, C-terminal, kept

[2] = target: T7, full-length HER2 in transduced MDA-MB-468 cells (Homo sapiens, UniProt P04626); experiment: flow cytometry on cells; Oslo-2 mAb 10 μg/mL on cell lines, 30 min at 4 °C in FACS buffer (PBS pH 7, 2% FBS, 2 mM EDTA), labelled secondary antibody; settings: one partner purified
T7 construct: full-length HER2 expressed from the plasmid pBABEpuro-ERBB2; source: cultured cells and subcutaneous xenograft tumours

[3] = target: T8, 611-CTF-p95HER2 (611-carboxy terminal fragment of HER2) on p95HER2-T47D cells (Homo sapiens, UniProt P04626); experiment: as above; settings: one partner purified
T8 construct: source: p95HER2-T47D cells (C2069, Crown Bioscience); cultured cells and orthotopic xenograft tumours in NSG mice

[4] = target: T9, full-length HER2 (endogenous) (Homo sapiens, UniProt P04626); experiment: as above; settings: one partner purified
T9 construct: human epidermal growth factor receptor 2 (HER2), full-length, on cells and in tissue sections; also called HER2 full-length; full-length HER2 receptor; source: endogenous, SK-BR-3 and A549 cells; endogenous, human breast carcinoma biopsy and normal human tissues

[5] = target: T1, N-terminally truncated 20 mer without …; experiment: peptide or protein array; peptides immobilised on a cellulose membrane (PepSpots); Oslo-2 mAb 5 μg/mL in 5% nonfat skim milk, three hours at RT; HRP-conjugated secondary antibody, chemiluminescence; settings: both partners purified
[6] = target: T2, peptide 1 of the overlapping 15mer …; experiment: as above; settings: both partners purified
[7] = target: T3, N-terminally truncated 20 mer without …; experiment: as above; settings: both partners purified
[8] = target: T4, N-terminally truncated 20 mer without …; experiment: as above; settings: both partners purified
[9] = target: T5, 20 mer epitope peptide …; experiment: as above; settings: both partners purified
[10] = target: T8, 611-CTF-p95HER2 (611-carboxy terminal …); experiment: flow cytometry on cells; monoclonal hybridoma supernatant (1:50 dilution) on cell lines, 30 min at 4 °C in FACS buffer, goat anti-rat-PE; settings: partners not purified

Kd [1]	binding result [2]	binding result [3]	binding result [4]	binding result [5]	binding result [6]	binding result [7]	binding result [8]	binding result [9]	binding result [10]	Binder
2 nM	no binding (tested: 10 μg/mL)	binds	no binding (tested: 10 μg/mL)	binds	binds	binds	binds	binds	–	Oslo-2 mAb (antibody, V domains shown, variable heavy domain; variable light domain; On the peptide membrane Oslo-2 was detected with a horse anti-mouse secondary antibody, so the constant regions may be mouse (surmise); also called Oslo-2 Ab; Oslo-2 (p95HER2) antibody) VH: EVQILETGGGLVKPGGSLRLSCATSGFNFNDYFMNWVRQAPGKGLEWIAQIRNKNYNYATYFAESLEGRFTISRDDSKSSVYLQVNSLRAEDTALYYCTELRYDYWGQGVMVTVSS VL: DIVMTQSPFSLAVSEGEMVTINCKSSQSLLSSGNQKNNLAWYQQKPGQSPKLLIYYASTRQSGVPDRFIGSGSGTDFTLTISDVQAEDLADYYCLQHYSSPYTFGAGTKLELK
–	–	–	–	–	–	–	–	–	binds	mClone 1 (monoclonal hybridoma culture supernatant) (antibody, V domains shown, constant region of the rat hybridoma antibody; source: rat hybridoma (B-cells fused with Ag8 myeloma cells), sub-cloned by limited dilution, culture supernatant) VH: EVQILETGGGLVKPGGSLRLSCATSGFNFNDYFMNWVRQAPGKGLEWIAQIRNKNYNYATYFAESLEGRFTISRDDSKSSVYLQVNSLRAEDTALYYCTELRYDYWGQGVMVTVSS VL: DIVMTQSPFSLAVSEGEMVTINCKSSQSLLSSGNQKNNLAWYQQKPGQSPKLLIYYASTRQSGVPDRFIGSGSGTDFTLTISDVQAEDLADYYCLQHYSSPYTFGAGTKLELK
